Experimental data taken from patent publication US20240262894A1 (INSTITUTE OF MICROBIOLOGY CHINESE ACADEMY OF SCIENCES, published 2024).

Assays:
[1] = target: T1, F protein of RSV A-type A2 strain (on virus) (respiratory syncytial virus A-type A2 …, UniProt P03420 26-574); test: cell-based or functional assay
[2] = target: F protein of RSV A-type Long strain (on virus) (respiratory syncytial virus A-type Long …, UniProt P12568 26-574); test: cell-based or functional assay
[3] = target: T2, F protein of RSV B-type clinical isolates (on virus) (respiratory syncytial virus B-type …); test: cell-based or functional assay
[4] = target: T1, F protein of RSV A-type A2 strain (on …); test: cell-based or functional assay; remark: listed apart in the source
[5] = target: T2, F protein of RSV B-type clinical …; test: cell-based or functional assay; remark: listed apart in the source
[6] = target: T3, pre-fusion F protein DS-Cav1 of RSV A2 strain (respiratory syncytial virus A2 strain); test: SPR (Biacore), F protein immobilised on CM5 chip, Fab as analyte
T3 construct: Purified from 293T cells; also called RSV-F (DS-Cav1); RSV pre-fusion F protein

[7] = target: T4, post-fusion F protein (FΔFP) of RSV A2 strain (respiratory syncytial virus A2 strain, UniProt P03420 26-513); test: as above
T4 construct: also called RSV-FΔFP; RSV post-fusion F protein

[8] = target: F protein of RSV A-type A2 strain (on virus) (respiratory syncytial virus A-type A2 …, UniProt P03420 26-574); test: cell-based or functional assay; remark: listed apart in the source
[9] = target: F protein of RSV A-type Long strain (on virus) (respiratory syncytial virus A-type Long …, UniProt P12568 26-574); test: cell-based or functional assay; remark: listed apart in the source

Binder | neutralization activity against RSV B-type clinical isolates relative to palivizumab [3] | IC50 (ng/mL), neutralization of RSV A-type A2 strain on Hep2 cells, flow cytometry [4] | IC50 (ng/mL), neutralization of RSV B-type clinical isolates on Hep2 cells, flow cytometry [5] | Kd [6] | Kd [7] | further results
RV11 antibody (human IgG1) (antibody, V domains shown) VH: QVQLVQSGGGVVQPGRSLRLSCAASGFSFTNYGMHWVRQAPGKGLEWVAVISYDDGSDKYYADSVKGRFTISRDNSKNTLYLQMNSLRAEDTAVYYCVRDPTGDYGDFPEQDGYYYYYGMDVWGQGTTVTVSS VL: QAVLTQPPSASGTPGQRVTISCSGSSLNIGSNYVYWYQQLPGTAPKFLIYKNNQRPSGVPDRFSGSKSGTSASLAISGLRSEDEADYYCAAWDDSLSGVVFGGGTKLTVLG | ~45 times | 42.3 ng/mL | 31.4 ng/mL | – | – | neutralization activity against RSV A2 relative to palivizumab [1]: ~18 times; neutralization activity against RSV Long relative to palivizumab [2]: ~16 times
RV8 antibody (human IgG1) (antibody, V domains shown) VH: QVQLVQSGGGVVQPGRSLRLSCAASGFTFSSYAMHWVRQAPGKGLEWMAVISYDGSNTYYADSVKGRFTISRDNSKNTLYLQMNSLRAEDTAMFYCARDYCSRGTCYHDYWGQGTLVTVSS VL: DIVLTQSPSSLSASVGDRVTITCRASQDIRNDLSWYQQKPGKAPKLLIYAASSLQSGVPSRFSGSGSGTDFTLTISSLQPEDFATYSCLQDYNYPQTFGQGTKVEIKR | 7.7 times | 540 ng/mL | 183 ng/mL | – | – | –
RV8 Fab (Fab, V domains shown, Fab made by enzyme digestion of the human IgG1/kappa antibody; also called Fab of RV8 antibody; not shown: limits not st) VH: QVQLVQSGGGVVQPGRSLRLSCAASGFTFSSYAMHWVRQAPGKGLEWMAVISYDGSNTYYADSVKGRFTISRDNSKNTLYLQMNSLRAEDTAMFYCARDYCSRGTCYHDYWGQGTLVTVSS VL: DIVLTQSPSSLSASVGDRVTITCRASQDIRNDLSWYQQKPGKAPKLLIYAASSLQSGVPSRFSGSGSGTDFTLTISSLQPEDFATYSCLQDYNYPQTFGQGTKVEIKR | – | – | – | 25.6 nM | 17.5 nM | –
RV10 Fab (Fab, V domains shown, Fab made by enzyme digestion of the human IgG1/lambda antibody; also called Fab of RV10 antibody; not shown: limits not st) VH: QVQLVQSGAEVKKPGASVKVSCKASGYTFTTYDFHWVRQAPGQGLEWIGWLNPDNGNTKHSQKFQGRVTFTRDTSASTAFMELSSLRSEDTAVYYCTRAPWWWYFDYWGQGTLVTVSS VL: NFMLTQPHSVSESPGKTVTISCTRSSGSIASNYVQWCQQRPGSSPTTVIYEDNQRPSGVPDRFSGSIDSSSNSASLTISGLRTEDEADYYCQSYDTSNAVFGGGTKLTVLG | – | – | – | 10.1 nM | 7.1 nM | –
RV7 Fab (Fab, V domains shown, Fab made by enzyme digestion (immobilised enzyme beads, Thermo 20341) of the human IgG1/kappa antibody; also called Fab of RV7 antibody; not shown: limits not st) VH: QVQLQESGPGLVKPSETLSLTCTVSGGSISSYYLSWIRQPPGKGLEWIGYIYHTGSTNYNPSLKSRVTISVHSSKNQFSLKLTSVTAADTAVYYCARHMRIVTTIDYWGQGTLVTVSS VL: DIVMTQSPSSLSASVGDRVTLTCRASQGISSYLAWYQQKPGKVPKLLIYAASTLQSGVPSRFSGSGSGTDFTLTISSLQPEDVATYYCQKYNSAPWTFGQGTKVEIKR | – | – | – | – | – | binding result [6]: no binding; binding result [7]: no binding
Palivizumab (antibody, V domains shown) VH: QVTLRESGPALVKPTQTLTLTCTFSGFSLSTSGMSVGWIRQPPGKALEWLADIWWDDKKDYNPSLKSRLTISKDTSKNQVVLKVTNMDPADTATYYCARSMITNWYFDVWGAGTTVTVSS VL: DIQMTQSPSTLSASVGDRVTITCKCQLSVGYMHWYQQKPGKAPKLLIYDTSKLASGVPSRFSGSGSGTEFTLTISSLQPDDFATYYCFQGSGYPFTFGGGTKLEIK | – | – | – | – | – | IC50 (ng/mL), neutralization of RSV A-type A2 strain on Hep2 cells, flow cytometry [8]: 751 ng/mL; IC50 (ng/mL), neutralization of RSV A-type Long strain on Hep2 cells, flow cytometry [9]: 897 ng/mL
